Experimental findings from article PMC9975078 are described below.

For this assay, the target named is Heterogeneous nuclear ribonucleoprotein A2/B1 (HNRNPA2B1), endogenous (human (endogenous in U2OS)).
Chain of Heterogeneous nuclear ribonucleoprotein A2/B1 (HNRNPA2B1), endogenous (human (endogenous in U2OS)) (P22626 whole entry): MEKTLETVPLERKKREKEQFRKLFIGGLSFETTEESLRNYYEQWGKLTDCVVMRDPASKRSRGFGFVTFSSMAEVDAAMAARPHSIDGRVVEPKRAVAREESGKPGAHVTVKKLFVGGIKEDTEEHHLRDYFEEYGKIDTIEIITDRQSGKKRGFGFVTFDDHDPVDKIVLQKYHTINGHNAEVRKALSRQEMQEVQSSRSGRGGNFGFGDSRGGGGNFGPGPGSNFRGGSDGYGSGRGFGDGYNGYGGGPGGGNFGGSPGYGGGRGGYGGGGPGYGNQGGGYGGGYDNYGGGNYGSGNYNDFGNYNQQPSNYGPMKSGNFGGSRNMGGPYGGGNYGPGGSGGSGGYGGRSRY

The substance “Replication Protein A subunit RPA70 (RPA1), endogenous (from UniProt P27694 1-616) (natural protein)” came in with a percent of RPA1 bound by HNRNPA2B1 of 43%.
